Measurements taken from the nanobody polyreactivity screen of Harvey et al. (2022).

Assay: yeast display, Sf9 membrane polyspecificity reagent, FACS + sequencing; frameworks hold sequencing errors
Method in brief: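 Synthetic nanobody libraries on Saccharomyces cerevisiae BJ5465 were galactose-induced for 36–48 hours, stained 1 hour at 4 °C with 10% biotinylated, detergent-solubilized Sf9 membrane reagent and enriched on streptavidin microbeads. FACS then separated cells into low and high (top ~1%) gates by anti-HA (expression) and streptavidin (reagent binding) fluorescence. Genes were colony-PCR amplified, MiSeq 2 × 250 sequenced and CDR-length filtered. A clone's polyreactivity label is that of its gate of origin.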

| Sequence | polyreactivity (PSR sort gate) |
| --- | --- |
| QVQLVESGGGLVQAGGSLRLSCAASGIIFPRYAMGWYRQAPGKERELVAAITRRGGRTYYADSVKGRFTISRDNAKNTVYLQMNSLKPEDTAVYYCNADFISPRPPKATDEDYWGQGTQVTVSS | high polyreactivity |
| QVQLVESGGGLVQAGGSLRLSCAASGRTFWYYAMGWYRQAPGKERELVADITRRGGGTYYADSVKGRFTISRDNAKNTVYLQMNSLKPEDTAVYYCAVERWPRSYPPSYDYWGQGTQVTVSS | high polyreactivity |
| QVQLVESGGGLVQAGGSLRLSCAASGYTFAWYTMGWYRQAPGKERELVAAISASGVRTYYADSVKGRFTISRDNAKNTVYLQMNSLKPQDTAVYYCNRVYSTSRITQYEFDYWGQGTQVTVSS | low polyreactivity |
| QVQLVEAGGGLVQAGGSLRLSCGASGLTLTYYAMGGYRQAPGKERELVASISRSGGRTYYADSVKGRFTISRDNAKNPVYLQMNSLKPEDTAVYYCNAAWYRGRYDYWGQGTQVTVSS | high polyreactivity |
| QVQLVESGGGLVQAGGSLRLSCAASAYIYRGYPLGRYRQAPGKERELVAAISNIGGTTYYADSVKGRFTISRDNAKNTVYLQMISLKREDTEVYYCAAEHSYWGWAYGYWGQGTQVTLSS | high polyreactivity |
| QVQLVESGGRLVQAGGSLRLSCAASGSTFSRNARGWNRQAPGKERELVAAISRSSSRTYYADSVKGRFTISRDNAKNTVYLQMNSLKPEDTAVYYCAADGYVWTPYLYDYWGQGTQVTVSS | high polyreactivity |
| QVQLVESGGGLVQAGGRLRLSCAATGRTFGRNAMGWYRQAPGKERELVAAINGNGGRTYYADSVKGRFTISRDNAKNTVYLQMNSLKPEDTAVYYCAADLRRSDYDYWGQGTKVTVSS | high polyreactivity |
| QVQLVESGGGLVQAGGSLRLSCAASGNTFQDYAMGWYRQAPGKERELVAAITQSGGSTFYADSVKGRFTISRDNAKNTVYLQMNSLKPEDTAVYYCATRTRYPRYYYWGQGTQVTVSS | high polyreactivity |
| QVQLVESGGGLVQAGGSLRLSCAASGIIFAYYAMGWYRQAPGKERELVAAISWSGTSTYYADSVKGRFTISRDTATNTVYLQMNSLKPEDTAVYYCNAYGLYSDMDYWGQGTQVTVSS | high polyreactivity |
| QVQLVESRGGLVQAGGSLRLSCAASGSTFTYYAMGWYRQAPGKERELVAAITFRGDSTYYADSVKVRFTISRDNAKNTVYFQMNSLKPEDTAVYYWGQGTQVTVSS | low polyreactivity |
| QVQLVESGGGLDQAGGSLRLTCAAYGSTFRYNAMGWYRQAHGKERELVAAIDKRGDSTYADSVKGSFTISRDNAKNTVYLQMNSMNPDDTAVYYCAADSDSKYYYGFLLDTYEYWGQATQVTVSS | low polyreactivity |
| QVQLVESGGGLVQAGGSLRLSCAASGSTFDIYVMGWYRQAPGKEREFVAAITTTTGRTNYADSVKGRFTISRDNAKNTVYLQMNSLKPEDTAVYYCAAYVTWGKLWYGYWGQGTQVTVSS | high polyreactivity |
| QVQLVESGGGLVQAGGSLRLSCAASGRIFRPYAMGWYRQAPGKERELVASINYSGGSTYADSVKGRFTISRDNAKNTVYLQMNSLKPEDTAVYYCNVYRDGFRYTAWYTGQTFDYWGQGTQVTVSS | low polyreactivity |
| QVQLVESGGGLVQAGGSLRLSCAASGITFSRYAMGWYRQAPGKERELVAAISKRGGRTYYADSVKGRFTISRDNAKKTDYLQMNSLKPEDTAVYYCATDYYVSTDYNYWGQGTQVTVSS | high polyreactivity |
| QVQLVESGGGLVQAGGTLRLSCAASGSIFGNYAMGWDRQAPGKERELVAGISKSGGRTYYADSVKGRFTISRDNAKNTVYLQMNSLKPEDTAVYYCNALVTRYQSLDRLGDYWGQGTQVTVSS | high polyreactivity |
| QVQLVESGGGLVQAGGSLRLSCAASGFISQFYAMGWYRQAPGKERELVAAINWRGDSTYYADSVKGRFTISRDNAKNTVYLQMNSLKPEVTAVYYCAAENWSGYDYWGQGTQVTVSS | high polyreactivity |
| QVQLVESGGGLVQAGGSLRLSCAASGITFFGYAMGWYRQAPGKERELVAGISRSTGRTYYADSVMGRFTISRDNAKYTVYLQMNSLKPEDTAVYYCDARATRSLSRYMDYWGQGTQVTVSS | high polyreactivity |
| QEQQQESGGGLVQAGGSQRLSCAASGYIFYFQYMGWYRQAPGKEREFVAAISDGANTNYADSVKGRFTISRDNAINTEYLQMNSLKPEDTAVYYCAVYADENYYYIYWGQGTQVTVSS | low polyreactivity |
| QVQLVEYGGGLVQAGGSLRLSCADSGRIFDVYAMGWYRQAPGKERELVARISDGGGSTYYADSVKGRFTISRDNAKNTVYLKMNSLKPEDTAVYYCAAGGDLRLDRRFAFVSRGDYWGQGTQVTVSS | low polyreactivity |
| QVQLVESGGGLVQAGGSLRLSCAASGSIFRKYAMGWYRQAPGKERELVAVITTDGSTNYADSVKGRFTISRDNAKNTVYLQMNSLKPEDTAVYYCNAVRSSIGTDNDYWGQGTQVTVSS | low polyreactivity |

| Sequence | polyreactivity (PSR sort gate) |
| --- | --- |
| QVQLQESGVRMVQAGGSLRLSCAASGNIFLGDTMGWYRQAPGKEREFVAGIARGGNPYYADSEKGRLTISRNNANNTVYLEKISLKPEDSAVHYCSVQRSDASDYNYWGQGTQVTVIS | low polyreactivity |
| QVQLVESGGGLVQAGGSLRLICAASGIIFDPNAMGWYRQAPGKERELVAAITHTGSTSYADSVKGRFTISRDNAKNTVYLQMNRLNPEDTAVYYCAAGTWVRAWYRYWYDFEYWGQGTQVTVSS | high polyreactivity |
| QVQLVESGGGLVQAGGSLRLSCAASGFTFRRYAMGWYRQAPGKERELVAAITRNGGSTYYADSVKGRFTISRDNAKNTVYLQMNRLKPEDTAVYYCNAVLYTPVYDGFDSWGQGTQVTVSS | high polyreactivity |
| QVQLVESGGGLVQAGGSLRLSCAASGRTFTVYGMGWYRQAPGKEREFVATISRRGGRTYYADSVKGRFTISRDNAKNTVYLHMNSLKPEDTAVYYCNADIGTYVRSGGGDFWGQGTQVTVSS | low polyreactivity |
| QVQLVESGGGLVQAGGSLRLSCTASGSTFVAYAMGWYRQAPGKERELVAAITSSGGRTYYADSVKGRFTISRDNAKNTVYLQMNSLKPEDTAVYYCAAVTHGRYDWGQGTQVTVSS | high polyreactivity |
| QVQHVESGGGLVQAGGSLRLSCAASGRTFAKYAMRWSRQAPGKERELVAAIRWSGGSTYYADSVKGRFTISRDNAKNTVYLQMNSLKPEDTAVYYCAARPALWGRYRGYDYWGQGTQVTVSS | high polyreactivity |
| QVQLVESGGGLVQAGGSLRLSCAASGGIFGDYAMGWYRQEPGKERELVAAINSGDSTNYADSVKGRFTISRDNAKNTVYLQMNSLKPEDTAVYYCNARGYWVYYVEYDYWGQGTQVTVSS | low polyreactivity |
| QVQLVESGGGLVQAGGSLRLSCAASGFIFLGYAMGWYRQAPGNERELVAAISESSGTTSYADSVKGRFTISRDNAKNTVYLQMNSLKPEDNAVYYCAADSIGNYLLYDYWGQCTQVTVSS | low polyreactivity |
| QVQLVESGGGLVQAGGSLRLSCAASGFTSDTNAMGWYRQAAGKERELVAAIDSGGGSTYYADSVKGRFTISRENSKNTVYFQMNSLKPEDTAVYYCNAEQTPFVASLRVGEYGYWGQGTQVTVSS | low polyreactivity |
| QVQLVESGGGLVQAGGSLSISCAASGSIFLAYDMGWYRPAPGKARELVAAITAGTGSTYYADSVKGRFTISRDNAKNTVYLQMTSLKPDDTAVYYCAAELWGGTYGEYEYWGQGTQVTVSS | low polyreactivity |
| QVQLVESGGGLVQAGGSLRLSCAASGSTFRGYAMGWYRQAPGKERELVAAISWSAGSTYYADSVKGRFTISRDNAKNTVYLQMNRLKPEDTAVYYCAKASVALRYFSYSLGRDYWGQGTQVTVSS | low polyreactivity |
| QVQLVESGGGLVQAGGSLRLSSAASGSIFGSNAMGWSRQAPGKERELVATITTSGGITYYADSVKGRFTISRDNAKNTVYLQMTSLKPEDTAVYYCAAAEGGGLVTYDYWGQGTQVTVSS | low polyreactivity |
| QVQLVESGGGLVQAGGSLRLSCAASGSIFIWYTMGWYRQAPGKERELVAAIDWNSGSTYYADSVKGRFTISRDNAKNTVYLQMNSLKPEDTAVYYCAATTFSGWFIFYYWGQGTQVTVSS | low polyreactivity |
| QVQLVESGGGLVQAGGSLRLSCAASGFTFFVYGMGWYRQAPGKERELVATINWSGASTYYADSVKGRFTISRDNAKNTVYLQMNSLKPEDTAVYSCAKDGHYPLVYLAFDYWGQGTQVTVSS | low polyreactivity |
| QVQLVESGGGLVQAGGSLRLSCAASGFIFPRYAMGWYRQAPGKERELVAAISYTGGSTYYADSVKGRFTISRDNAKNTVSLQMNSLKPEDTAVYYCYAYFLSQYQRGYRDDYWGQGTQVTVSS | high polyreactivity |
| QVQLVESGGGLVQAGGSLRLSCSASGITFYRYVMGWYRQAPGKERELVAAISRGGGSTYYADSVKGRFTISRDNAKNTVYLQMNSLKPEDTAVYYCAARAWVQGGIGGQSWFDYWGQGTQVTVSS | high polyreactivity |
| QVQLVESGGGLVQAGGSLRLSCAASGSTLSVYVMGWYSQAPGKERELVAAITRGGSTNYADSVKGRFTISRDNAKNTVYLQMISLKPEDTAVYYCAARAFVYYHHGEGSRSGRYYYWGQGTQVTVSS | high polyreactivity |
| QVQLVESGGGLVQAGGSLRLSCDASGSTFRGYAMGWYRPAPGKERELVAAITSDGSTNYADSEKGRFTISRDNAKNTVYLQMNSLKPEDTAVYYCNVKATRKWWDRRVYRYNYWGQGTQVTVSS | high polyreactivity |
| QVQLLESGGGLVQAGGSLRLSCAASGRIFNPYAMGWFRQARGKERALVAASSSCGDRTFYADSVKGRFTISRDNAKNTVYLQMNSRKPEDTAVYFCNTVVYTRFRPWRYGYCGQGTQVTVSS | high polyreactivity |
| QVQLVESGGGLVQAGGSLRLSCAASGRTFPWYAMGWYRQAPGKERELVAAITISGGRTYYADSVKGRFTISRDNAKNTVYLQMNSLKPEDTAVYYCAAKTSFRYFNYAKPSYGYDYWGQGTQVTVSS | high polyreactivity |
